Several values for one entry are separate records, joined by “and”; a condition that tells them apart may be missing. Equal entries are not always repeated. Where two headings read alike, the source gives them in different places.
B1: eSrtA(2A-9): P94R, S102C, A104H, E105D, K138P, K152I, N160K, K162H, T164N, D165A, K173E, I182V, K190E, T196S (protein)
chain: QAKPQIPKDKSKVAGYIEIPDADIKEPVYPGPATREQLNRGVCFHDENESLDDQNISIAGHTFIDRPNYQFTNLKAAKPGSMVYFKVGNETRIYKMTSIRKVHPNAVEVLDEQEGKDKQLTLVTCDDYNEETGVWESRKIFVATEVK
B2: eSrtA (protein)
chain: QAKPQIPKDKSKVAGYIEIPDADIKEPVYPGPATREQLNRGVSFAEENESLDDQNISIAGHTFIDRPNYQFTNLKAAKKGSMVYFKVGNETRKYKMTSIRNVKPTAVEVLDEQKGKDKQLTLITCDDYNEETGVWETRKIFVATEVK

How the values were obtained:
Format in all cases: biochemical
[1] = test system: LPESG (Abz-LPESGK(Dnp)-CONH2); experiment: In vitro sortase kinetics HPLC assay, LPESG substrate; details: for Rel. Activity: kcat/Km of the enzyme's preferred substrate relative to kcat/Km on this substrate
Method in brief: (§1)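 Abz-LXEXGK(Dnp) peptides in 300 mM Tris pH 7.5, 150 mM NaCl, 5 mM CaCl2, 5% DMSO, GGG; 22.5° C., acid-quenched, converted fraction by reverse-phase HPLC peak areas. kcat and Km from eight substrate concentrations fit to Michaelis-Menten; KH at 1 mM substrate over eight GGG levels.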

[2] = test system: LAETG (Abz-LAETGK(Dnp)-CONH2); experiment: In vitro sortase kinetics HPLC assay, LAETG substrate; details: for KN: eight GGG concentrations; for Rel. Activity: kcat/Km of the enzyme's preferred substrate relative to kcat/Km on this substrate
Experimental: See below for details on sortase expression and purification, and on the synthesis of Abz-LPETGK(Dnp)-CONH2 (SEQ ID NO: 19). […] Reactions were initiated with the addition of enzyme and incubated at 22.5° C. for 3 to 20 minutes before quenching with 0.5 volumes of 1 M HCl. Five to ten nmol of peptide from the quenched reactions were injected onto an analytical reverse-phase Eclipse XDB-C18 HPLC column (4.6×150 mm, 5 μm, Agilent Technologies) and chromatographed using a gradient of 10 to 65% acetonitrile with 0.1% TFA in 0.1% aqueous TFA over 13 minutes. Retention times under these conditions for the Abz-LPETGK(Dnp)-CONH2 (SEQ ID NO: 19) substrate, the released GKDnp peptide, and the Abz-LPETGGG-COOH (SEQ ID NO: 20) product were 12.8, 10.4, and 9.1 min, respectively. To calculate the percent conversion, the ratio of the integrated areas of the Abz-LPETGGG-COOH (SEQ ID NO: 20) and Abz-LPETGK(Dnp)-CONH2 (SEQ ID NO: 19) peptide Abs220 peaks was compared to a standard curve generated by mixing the product and starting peptide in known ratios. To determine […] and Km, reaction rates were fit to the Michaelis-Menten equation using OriginPro 7.0 software. All kinetics values reported represent the average of at least three measurements. Percent conversion was also calculated by using the ratio of the integrated areas of the GK(Dnp)-CONH2 and Abz-LPETGK(Dnp)-CONH2 peptide Abs355 peaks were compared directly (Example 5). To determine kcat and Km, LPETG, reaction rates were fit to the Michaelis-Menten equation using Microsoft Excel using the Solver add-in. To determine Km,GGG and KH, reaction rates were fit to the modified Michaelis-Menten, for which KH is as defined when KH<<Km,GGG.
Assays to determine eSrtA, eSrtA(2A-9) and eSrtA(4S-9) specificity were performed by preparing 10 μM stocks of Abz-LXEXGK(Dnp) (SEQ ID NO: 75) peptides in 300 mM Tris pH 7.5, 150 mM NaCl, 5 mM CaCl2, 5% v/v DMSO, and 100 mM Gly-Gly-Gly-COOH (GGG). Reactions were performed by adding eSrtA(2A-9) to a final concentration of 450 nM, eSrtA(4S-9) to a final concentration of 115 nM or eSrtA to a final concentration of 47.5 nM and a final volume of 100 μL, then incubating at 22.5° C. for 15 minutes. Reactions were quenched by the addition of 0.2 volumes of 5 M HCl, then were injected onto an analytical reverse-phase Eclipse XDB-C18 HPLC column (4.6×150 mm, 5 μm, Agilent Technologies) and chromatographed using a gradient of 10 to 65% acetonitrile with 0.1% TFA in 0.1% aqueous TFA over 13 minutes. Retention times under these conditions for the Abz-LPETGK(Dnp)-CONH2 (SEQ ID NO: 19) substrate, the released GKDnp peptide, and the Abz-LPETGGG-COOH (SEQ ID NO: 20) product were 12.8, 10.4, and 9.1 min, respectively, while the remaining Abz-LXEXGK(Dnp)-CONH2 (SEQ ID NO: 74) substrates varied in retention time between 9 and 13 minutes. To calculate the percent conversion, the ratio of the integrated areas of the GK(Dnp)-CONH2 and Abz-LPETGK(Dnp)-CONH2 (SEQ ID NO: 19) peptide Abs355 peaks were compared directly. Subsequent determination of kcat/Km and KH were performed as described for in vitro SrtA characterization.
In each case, rate constants were determined by measuring enzyme velocity at eight different substrate concentrations by HPLC assay, then fit using nonlinear regression to the Michaelis-Menten equation, yielding kcat and Km. KH was calculated by measuring enzyme velocity at 1 mM target substrate and eight different GGG concentrations by HPLC assay, then fitting the resulting curves using nonlinear regression to the modified Michaelis-Menten equation.

[3] = test system: LPETG (Abz-LPETGK(Dnp)-CONH2); experiment: In vitro sortase kinetics HPLC assay, LPETG substrate; details: for KN: eight GGG concentrations; for KH,LPETG: LPETG substrate; for Rel. Activity: kcat/Km of the enzyme's preferred substrate relative to kcat/Km on this substrate
Method in brief: as §1

[4] = Sub LPESG, 100 mM GGG, read-out: Km
[5] = Table 2, Sub LPESG, read-out: Km
[6] = GGG varied, substrate 2A (LAETG)
[7] = Sub LAETG, 100 mM GGG, read-out: Km
[8] = Table 2, Sub LAETG, read-out: Km
[9] = Sub LPETG, 100 mM GGG, read-out: Km
[10] = Table 2, Sub LPETG, read-out: Km

Molecule | Kcat (Hz) ([1]; Sub LPESG, 100 mM GGG) | Km [1, 4] [µM] | Rel. Activity ([1]; Sub LPESG) | Kcat (Hz) ([1]; Table 2, Sub LPESG) | Km [1, 5] [µM] | KH ([2]; 1 mM LAETG) [µM] | KN ([2]; 1 mM LAETG) [µM] | Km ([2]; 1 mM LAETG, read-out: Km,GGG) [µM] | Kcat (Hz) ([2]; Sub LAETG, 100 mM GGG) | Km [2, 7] [µM] | Rel. Activity ([2]; Sub LAETG) | Kcat (Hz) ([2]; Table 2, Sub LAETG) | Km [2, 8] [µM] | KH ([3]; 1 mM LPETG) [µM] | KN ([3]; 1 mM LPETG) [µM] | Km ([3]; 1 mM LPETG, read-out: Km,GGG) [µM] | KH,LPETG [3] [µM] | Kcat (Hz) ([3]; Sub LPETG, 100 mM GGG) | Km [3, 9] [µM] | Rel. Activity ([3]; Sub LPETG) | further results
B1 | 0.0066 ± 0.0006 | 4800 ± 1200 | 5943 | 0.0066 ± 0.0006 | 4800 ± 1200 | 33 ± 4 | 33 ± 4 | 1480 ± 190 | 2.23 ± 0.02 | 265 ± 9 | 1 | 2.23 ± 0.02 | 265 ± 9 | 27.1 ± 0.1 | 27.1 ± 0.1 | 585 ± 3 | 18.7 ± 3.3 | 0.0209 ± 0.004 | 1270 ± 62 | 510 | activity on LPESG [1]: negligible activity; preference for LAETG over LPESG [2]: > 1000 :1; Avg kcat (Hz) ([2]; Example 5 variants, substrate 2A (LAETG)): 2.23 Hz; Km ([2]; Example 5 variants, substrate 2A (LAETG), read-out: Avg KM): 265 µM; Avg kHydro (Hz) [2, 6]: 0.03506 Hz; Avg kcat (Hz) [2, 6]: 1.587 Hz; Km ([2]; KM for GGG, substrate 2A (LAETG), read-out: Avg KM): 1480 µM; change in specificity for LAETG versus LPETG relative to eSrtA ([2]; ratio of (kcat/KM)target to (kcat/KM)LPETG, relative to eSrtA): 51,000 fold; preference for LAETG over LPETG ([2]; ratio of kcat/KM): ~500 fold and 510 fold; Specificity (relative catalytic efficiency, fold) ([2]; ratio of kcat/KM between 2A (LAETG) and wt (LPETG)): 509.8 fold; Avg KH ([2]; substrate 2A (LAETG)): 32.79 µM; Avg kcat (Hz) ([3]; Example 5 variants, substrate wt (LPETG)): 0.02091 Hz; Km ([3]; Example 5 variants, substrate wt (LPETG), read-out: Avg KM): 1270 µM; Kcat (Hz) ([3]; Table 2, Sub LPETG): 0.0209 ± 0.0004 Hz; Km [3, 10]: 1270 ± 62 µM; activity on LPETG ([3]; round 9 clones): minimally active on LPETG
B2 | 1.46 ± 0.13 | 318 ± 58 | 4.9 | 1.46 ± 0.13 | 318 ± 58 | 26.5 ± 0.6 | 26.5 ± 0.6 | 807 ± 56 | 1.31 ± 0.26 | 6070 ± 870 | 103.3 | 1.31 ± 0.26 | 6070 ± 870 | 32.8 ± 2.4 | 32.8 ± 2.4 | 1617 ± 13 | 32.8 ± 2.4 | 5.4 ± 0.4 | 230 ± 20 | 1 | KH ([1]; 1 mM LPESG): 76 ± 19 µM; KN ([1]; 1 mM LPESG, eight GGG concentrations): 76 ± 19 µM; Km ([1]; 1 mM LPESG, read-out: Km,GGG): 22000 ± 900 µM; kcat, 10 mM GGG (Hz) ([1]; substrate 4S (LPESG), 10 mM GGG): 1.74 Hz; Km ([1]; substrate 4S (LPESG), read-out: Km, LxExG): 672 µM; preference for LPETG over LAETG ([2]; ratio of kcat/KM): 103 fold; specificity (relative cat. Efficiency, fold) ([2]; ratio of kcat/Km between 2A (LAETG) and wt (LPETG) substrates, favoured over disfavoured): 122.6 fold; kcat, 10 mM GGG (Hz) ([2]; substrate 2A (LAETG), 10 mM GGG): 1.316 Hz; Km ([2]; substrate 2A (LAETG), read-out: Km, LxExG): 6160 µM; Khydrolysis ([3]; 1 mM wt (LPETG) substrate): 22.59 µM; kcat, 1 mM LxExG (Hz) ([3]; 1 mM wt (LPETG) substrate, GGG varied): 7.245 Hz; Km ([3]; 1 mM wt (LPETG) substrate, read-out: Km, GGG): 2990 µM; Kcat (Hz) ([3]; Table 2, Sub LPETG): 5.4 ± 0.4 Hz; Km [3, 10]: 230 ± 20 µM; kL/KL/KH ([3]; substrate wt (LPETG)): 1.20E+09; kHydrolysis (Hz) ([3]; substrate wt (LPETG), 1 mM, GGG varied): 0.05546 Hz; kcat, 10 mM GGG (Hz) ([3]; substrate wt (LPETG), 10 mM GGG): 5.622 Hz; Km ([3]; substrate wt (LPETG), read-out: Km, LxExG): 208 µM

Reference: patent US10202593B2, “Evolved sortases and uses thereof” (President and Fellows of Harvard College, priority 2013, dated 2019)
